Data as given in the DeepSol protein solubility set.

Experiment: soluble on expression in E. coli; label from the status in PepcDB or PDB records

Sequence | soluble on expression in E. coli
MRFSREALLELEASRLAPYAQKARDTRGRAHPEPESLYRTPYQKDRDRILHTTAFRRLEYKTQVLPGWAGDYYRTRLTHTLEVAQVSRSIARALGLNEDLTEAIALSHDLGHPPFGHTGEHVLNALMQDHGGFEHNAQALRILTHLEVRYPGFRGLNLTYEVLEGIATHEAAYSPGFKPLYEGQGTLEAQVVDLSDAIAYAAHDLDDGLRAGLLHPEELKEVELLQALALEEGLDLLRLPELDRRVLVRQLLGYFITAAIEATHRRVEEAGVQSAEAVRRHPSRLAALGEEAEKALKALKAFLMERFYRHPEVLRERRKAEAVLEGLFAAYTRYPELLPREVQAKIPEEGLERAVCDYIAGMTDRFALEAYRRLSP | soluble
MNHVAVIGGGIIGASWAVVFARRGLEVTIVERDAACLAGLPARLAGMIERSASLLGAGEQPGDVAARIGATDALAAAVGRADYVQEAVSENLALKRTLFAELDALAPAHALLASSTSTYGASQFTEALAGRARCLVAHPMTPPHLSPVVEMAASAWTDPQVLAGAEAFMRSLGQHPVRIRKEIPGFVLNRLQGALLMEMFRVIADDVISPADADALISQGLGLRWATLGPLEGVDLNAPGGIADYLQRYGHIFNDMAVGQGLPAPVDAELISALDGAMRAALPLERLEAKRGWRDRAIAGVRVALHDYTGEKPLEHHHHHH | not soluble
VALLGLILPYFVSRWWARTQSYTKKGIHNVTASNFVSNLVNYKPSEIVTTDLILHWLSFAHEFKQFFPDLQPTDFEKLLQDHINRRDSGKLNNAKFRIVAKCHSLLHGLLDIACGFRNLDIALGAINTFKCIVQAVPLTPNCQILQLPNVDKEHFITKTGDIHTLGKLFTLEDAKIGEVLGIKDQAKLNETLRVASHIPNLKIIKADFLVPGENQVTPSSTPYISLKVLVRSAKQPLIPTSLIPEENLTEPQDFESQRDPFAMMSKQPLVPYSFAPFFPTKRRGSWCCLVSSQKDGKILQTPIII | not soluble
MDNSVMLDYLAVTIKGLAPDDVIEKILILPKDKFVLNEWGINKYQRHYSFSEIKVYFNKDWQSKMGVFIELRGQGCRQYEEYMENNVNNWVTLMKRISECHSNVTRLDIANDIFDDSLSVPLIYSYCKKQLCISTAKTFDYHEKSLLENGEKVGEMVTIGVRGTQQWCVYNKLLEQKLDQELPNTPLSWTRAELRCWQEKANLLAKQIKEGRPLKEIYFEVINGHYRFVSPRDKDSNRWRRKTVKWWNDYLETQEKTVLSVKRTKPTLKRSEKWTEKQVSRTLGKLYVAKAESHGQEKADSYIQHLLELGISKLTETDETDIQQYKQEQLSSAYWGIRKDDL | not soluble
MNPRQAFFACLHRSPPALLEAALWIAAEHDPQVVPGLLLEEFKQLQQQVGSSLPTLPANELGQPLLRRLNDLGFQQDEHLPLRPQAALMDKVLERRRGQPLALALIALELAQRLQVPLAGVNFPGHFLLRVPGADHLLDPCGGRRLYPNDCRELLQRQYGAHIKLSAEHLASAEPLQMFQRLSRNLRQLHLSYDDHLGALINAERVLEIGNGSAADYLARASLYQRLECPNAERFDLEHALLLSDDPIQRLRLTERLGHLPPNTIVHLEHHHHHH | soluble
MGSDKIHHHHHHMKVSTISIDLAKNVFQLLGMDKHAKQVFSKRLNRTQLSEFMSQQPVCDVVFEACYSSHYWGRKFLAMGHNVKLIPAQHVTPFVRGSKNDKNDAMAIYEANFRPNIRFVPIKTEAQQEILMLHRVRERLVKQRTACTNQIRGVLVDFGICFPQGHSAFERAMWDIINDESQRPIIKLMANDFWDEYQTVSTRLDRINRLIKQLVEQDPNGKILLSIPGVGPIIASAFAAAIGAGQAFNSAKELAVWLGLTPQQFASGNKSINGSITKRGDGYLRKQLIHGARTVVSHASKKNDDLNQWITQLRNRKSICTTVVATAHRLARLMWILLHKQVPYAPQYGAYQGISHEAN | not soluble
MGSDKIHHHHHHMQIISHRGYWLHKPERNLTQAFHRSFDFGFGTETDVRDVAGQLVISHDMPVGGELTLDGLLDIMAGRNLPLAINVKADGMALALKKTFARYGHTNWFVFDMAVPDMRSYLIEEVITYSRLSDVEPSPAWLERATGVWLDGFDSEWFSNQVIGDLLSQDKQVCVVSPELHGRDCMALWQQLLEFRSENRLTLCTDTPVDAAIFFK | not soluble
MSPGSVVVTGANRGIGLGLVQQLVKDKNIRHIIATARDVEKATELKSIKDSRVHVLPLTVTCDKSLDTFVSKVGEIVGSDGLSLLINNAGVLLSYGTNTEPNRAVIAEQLDVNTTSVVLLTQKLLPLLKNAASKESGDQLSVSRAAVITISSGLGSITDNTSGSAQFPVLAYRMSKAAINMFGRTLAVDLKDDNVLVVNFCPGWVQTNLGGKNAALTVEQSTAELISSFNKLDNSHNGRFFMRNLKPYEF | soluble
MPVVERTTFLAGYSPQQVLDFCLEGANFPKIFPERVTPLGGLDINDLRISVGRQFSFLHWMFGVIPAKWTVVIREVGDRHFVDEMLKGPLRAFRHEHRVEAAEGGTLYTDRVTYRAIGGAPLEWLMVNAYMARIFDARHRNMLRLLSLEHHHHHH | soluble
MKIGIIGAMQQEVAILKDLIEDVQEVNQAGCTFYSGQIQGVDVVLLQSGIGKVSAALGTALLISQYAPDVVINTGSAGGFDASLNVGDVVISSEVRHHDADVTAFGYEIGQMAGQPAAFKADEKLMTVAEQALAQLPNTHAVRGLICTGDAFVCTAERQQFIRQHFPSVVAVEMEASAIAQTCHQFKVPFVVVRAISDVADKESPLSFEEFLPLAAKSSSAMVLKMVELLK | soluble
MKFKSRVQMLNYVIGKKPDIMKTVDRRAEKEGVTDDNRLLDYKLLVISVLDAEAVYDEDRPIEEKKFSTSQEVDKYLETRFKEHMDSAWKEMFNK | not soluble
MSRCKRCLLPHSAPGAAVDSSGICAFCRSYVPNDKNLSDQLHQQRQLDLEKALADCRGKGPYDVLVCLSGGKDSLYLLYRLKVEYKLNVLAFTTDVNIPDIAWNNIHRTIQKLDIDHLVYRPSAQFYRKLFRYLLMNQEERGAVYTVSYVYAPLFEGDALQVAMEKGIPLVLAGYSPGQPEPERMEFEFSRKLITETDWTPPGLRQSGEFTEEELARFWNPKRFPADTRFPRYLAPFHAWDYDQEAMIRKVHDLELVKRRAHGNPIYSNYPINWLLMYSDLKHFGYNPYAPEFSALIRAGKASRAYWWFMTPIVNFIIRNKLLIGRNTVDQLQQLGLQEDDLKITRPRGAYDPEID | not soluble
PSTLELLKDVHLGLPVPCHDPARLALLSGHYLYYHYGCDGLDDRGWGCGYRTLQTLCSWPGGQSSGVPGLPALQGALEAMGDKPPGFRGSRNWIGCVEASLCLEHFGGPQGRLCHLPRGVGLRGEEERLYSHFTTGGGPVMVGGDADAQSKALLGICEGPGSEVYVLILDPHYWGTPKNRCELQAAGWVGWQKVKSVFDSNSFYNLCFTRLEHHHHHH | soluble
MTPEAPYASLTEIEHLVQSVCKSYRETCQLRLEDLLRQRSNIFSREEVTGYQRKSMWEMWERCAHHLTEAIQYVVEFAKRLSGFMELCQNDQIVLLKAGAMEVVLVRMCRAYNADNRTVFFEGKYGGMELFRALGCSELISSIFDFSHSLSALHFSEDEIALYTALVLINAHRPGLQEKRKVEQLQYNLELAFHHHLCKTHRQSILAKLPPKGKLRSLCSQHVERLQIFQHLHPIVVQAAFPPLYKELFST | soluble
SEDHQHVPIDIQTSKLLDWLVDRRHCSLKWQSLVLTIREKINAAIQDMPESEEIAQLLSGSYIHYFHCLRILDLLKGTEASTKNIFGRYSSQRMKDWQEIIALYEKDNTYLVELSSLLVRNVNYEIPSLKKQIAKCQQLQQEYSRKEEECQAGAAEMREQFYHSCKQYGITGENVRGELLALVKDLPSQLAEIGAAAQQSLGEAIDVYQASVGFVCESPTEQVLPMLRFVQKRGNSTVYEWRTGTEPSVVERPHLEELPEQVAEDAIDWGDFGVEAVSEGTDSGISAEAAGIDWGIFPESDSKDPGGDGIDWGDDAVALQITVLEAGTQAPEGVARGPDALTLLEYTETRNQFLDELMELEIFLAQRAVELSEEADVLSVSQFQLAPAILQGQTKEKMVTMVSVLEDLIGKLTSLQLQHLFMILASPRYVDRVTEFLQQKLKQSQLLALKKELMVQKQQEALEEQAALEPKLDLLLEKTKELQKLIEADISKRYSGRPVNLMGTSL | soluble
MGNSSSLMLRDEEIEEIMSETEFNRNQIVRLYSRFLSLDKKGQGFLSRDDFLNVPELAVNPLGDRIVDAFFTLASSNGDNEEQQLNFRQFVRILAHFQPISRVKKNALNSRKDKLLFAFKMYDLNKNDYITREEFKVILNSMVGANITSDQLDKIADRTIEEADADRDGKISFDEFCRAMEKTDIEEKMSIRFLN | soluble
MICNNQREFDNSLKCYQTALVTSQWTVRIRNLNWVLQEKVKSLYVEYQIWRGIDQTNKANPNTLRTNLDQVLAQLETFPTASASPIDSGSAGQLTPFHRSHFHPYKDNKRMRFPSNKEGGLCNSLLSSHYEWC | not soluble
MKNKLLYKLRSGKNPKFIYYSVNALRLIIPKGIFRLRLQGKLSSLSRRKDKEYIEHRVDYYNKLSGTVQLPSSAPHLSEHKMSKQKVYFFDTYQYTRWFSDQFQWGFCPGDVTFVPDYPSIVKSRPLTDDNVNSIVMKLDKVRHFIFVDDKKAFTEKKNMVIFRGKVKGKPSRKLFMEMYFHHPMCDLGDVSKNTTDPAEWRTEKKTINEHLDYKFIMALEGIDVASNLKWVMSSNSIAVMPRPTCETWFMEGTLIPNYHYIEIKPDFSDLEERLNYYIEHVDESLEIINHAHEYVSQFKDKRRENLISLLVLDKYFKMTGQKSLEHHHHHH | soluble
MTGPTTDADAAVPRRVLIAEDEALIRMDLAEMLREEGYEIVGEAGDGQEAVELAELHKPDLVIMDVKMPRRDGIDAASEIASKRIAPIVVLTAFSQRDLVERARDAGAMAYLVKPFSISDLIPAIELAVSRFREITALEGEVATLSERLETRKLVERAKGLLQTKHGMTEPDAFKWIQRAAMDRRTTMKRVAEVVLETLGTPKDT | soluble
MGINERLRHVIEAQKMTIKGFAETVDIPLRSVHNYLSGEREPSADALTKISNKLNINLNWLLLDQGEMYLNQSSDLTLNADEMNLLTQYRQTHDSGKRILQATSKIILDELK | not soluble
MDFKQYSPEELKECSMIEVVHSVLGDKKQATTFNELVQEIAQVLGLSQEQVNAKIAQFYTDLNIDGRFINLGENRWGLRSWYPYEQIDEEILPQPKPKKKRKVEEDGFDDYIDEDEDDFDDVDGNEDEDDDVEDLDKVLEDEDGDDDDLDDLDEDEDDFAEEELEYDETEEEEEEEL | not soluble
MAHHHHHHMATAKELGPGGLREDGRPIFIATDHTKFTPSTKQELTDQQKLAWKSFQLWRTTLGIERRDNVYKTLTNSDYTNFRLGTHILGTPYPVIETVPGFFDVFKAVRWYEHAISLAVALGYGYWIRSKASTRYSRMMPMSRTSITMLTFISTDLCFCYRSMYRLTGYLPNEYECFKYGVLEDKDKLQRKKELWEKYANHKREWCRRYDYHVYGIRPGETFSFFSACMIPSWEPRYNTRTDYPPRKNPYFLTSTPLRDTFLESPFTYEIPKDETVPLVRERPELKYLYRGPGRTTPPSDEK | not soluble
MGSDKIHHHHHHMLSHRLQDTSLRYFLEVVRTGSLTEAAQRLNVTVSAVSRQVAALESWLGVPLFDRRPRGMVASAAGELLAAYALRNALEADRVVTEIDALQGLRRGRVRVASSAGFAIEFLPRAIADFRERYPGLHFHVRVAPPAEVTGIVLHGDADIGITYSRAAEQGIRVEHRQAAPVIAIMRPDHALARFRSITLSQMLPYPLALPEGDNTVRQLFDIACGERGVAFEPVLVSNQFETLTSFVLHGGGLSISGGVTVGDRLRRGELHAATIRERGMKSRAIELQTLAGRTLPEGVRTFLGFVRDRLVEEAGIGS | not soluble
MSLQKPKIAFIDDEPRILRSLKMHFRQSHDVFITTDASELMKYVSEHDVQVVISDQRMPDKQGTEVLRDIKAASPNTLRILLTGYADLNAVIDSVNEGEIYRYITKPWQNDELKQIVNKATEIAQQTQEITQNTEGHHHHHH | not soluble
